# Source: PMC6326804, “Structural insights into a unique preference for 3′ terminal guanine of mirtron in Drosophila TUTase tailor” (Nucleic Acids Research, 2018)
# Columns and labels:
# [1] = target: T1, Tailor-ZnC (Drosophila melanogaster, UniProt Q9VI58); assay: in-vitro nucleotide transferase assay, denaturing PAGE of Cy5-labelled RNA; assay type: biochemical; conditions: 1 mM UTP, 200 nM Cy5 truncated pre-mir-1003, 10 mM MgCl2, pH 7.2, 25 °C
# T1 construct: core domain with possible N-terminal C2H2 zinc finger, residues 137-560; N-terminal 8xHis-SUMO tag cut by ULP1; E. coli host
# [2] = target: T2, Tailor-C (Drosophila melanogaster, UniProt Q9VI58, D343A); assay: X-ray crystal structure (crystal soaking), […] A; assay type: binding; conditions: D343A crystals soaked with 10 mM UTP and 20 mM MgCl2 for 10 min; active site of catalytic groove
# T2 construct: core catalytic domain, residues 202-560; N-terminal 8xHis-SUMO tag cut by ULP1; E. coli host
# [3] = target: Tailor-C (Drosophila, UniProt Q9VI58 202-560); assay: crystal structure; EMSA: 25 mM Tris-HCl pH 7.2, 100 mM NaCl, 5 mM DTT, 500 nM Cy5-RNA, 0-2.5 uM protein, 30 min on ice; 6% native gel at 4 C; conditions: protein: recombinant; tags: 8xHis-SUMO tag removed by ULP1; single strand
# [4] = target: Tailor-C V328L (Drosophila, UniProt Q9VI58 202-560, V328L); assay: EMSA; no Mg2+ added; EMSA: 25 mM Tris-HCl pH 7.2, 100 mM NaCl, 5 mM DTT, 500 nM Cy5-RNA, 0-2.5 uM protein, 30 min on ice; 6% native gel at 4 C; conditions: protein: recombinant; tags: 8xHis-SUMO tag removed by ULP1; label: 5'-Cy5; single strand
# [5] = target: Tailor-C V328I (Drosophila, UniProt Q9VI58 202-560, V328I); assay: as above; conditions: protein: recombinant; tags: 8xHis-SUMO tag removed by ULP1; label: 5'-Cy5; single strand
# [6] = target: Tailor-C V328R (Drosophila, UniProt Q9VI58 202-560, V328R); assay: as above; conditions: protein: recombinant; tags: 8xHis-SUMO tag removed by ULP1; label: 5'-Cy5; single strand
# Tailor-C V328R, sequence (Q9VI58 202-560 V328R): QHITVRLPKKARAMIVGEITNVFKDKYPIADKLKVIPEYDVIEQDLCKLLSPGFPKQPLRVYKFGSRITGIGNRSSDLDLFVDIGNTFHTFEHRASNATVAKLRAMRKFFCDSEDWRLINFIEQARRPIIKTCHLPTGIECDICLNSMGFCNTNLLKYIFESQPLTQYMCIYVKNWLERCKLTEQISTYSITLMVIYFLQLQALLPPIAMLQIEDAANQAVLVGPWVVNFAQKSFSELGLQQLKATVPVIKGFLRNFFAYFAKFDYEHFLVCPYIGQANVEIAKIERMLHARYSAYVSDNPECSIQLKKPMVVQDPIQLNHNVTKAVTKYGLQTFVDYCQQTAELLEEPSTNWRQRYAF
# Tailor-C (Drosophila, UniProt Q9VI58 202-560), sequence (Q9VI58 202-560): as the sequence (Q9VI58 202-560 V328R) above, with R127V counted along it
# Tailor-C V328L, sequence (Q9VI58 202-560 V328L): as the sequence (Q9VI58 202-560 V328R) above, with R127L counted along it
# T2 sequence (Q9VI58 202-560 D343A): as the sequence (Q9VI58 202-560 V328R) above, with R127V, D142A counted along it
# Tailor-C V328I, sequence (Q9VI58 202-560 V328I): as the sequence (Q9VI58 202-560 V328R) above, with R127I counted along it
# T1 sequence (Q9VI58 137-560): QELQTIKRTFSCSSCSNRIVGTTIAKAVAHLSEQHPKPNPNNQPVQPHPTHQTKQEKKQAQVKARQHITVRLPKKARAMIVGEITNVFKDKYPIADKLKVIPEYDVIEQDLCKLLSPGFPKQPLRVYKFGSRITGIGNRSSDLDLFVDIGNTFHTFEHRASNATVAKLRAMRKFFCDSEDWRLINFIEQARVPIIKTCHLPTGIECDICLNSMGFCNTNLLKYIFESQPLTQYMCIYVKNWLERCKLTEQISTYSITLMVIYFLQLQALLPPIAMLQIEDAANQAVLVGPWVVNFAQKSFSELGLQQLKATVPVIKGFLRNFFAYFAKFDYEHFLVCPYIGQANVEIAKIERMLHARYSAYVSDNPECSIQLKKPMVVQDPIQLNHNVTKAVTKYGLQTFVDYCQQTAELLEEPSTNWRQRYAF
molecule,measurement,setting,value
O=c1ccn([C@@H]2O[C@H](COP(=O)(O)OP(=O)(O)OP(=O)(O)O)[C@@H](O)[C@H]2O)c(=O)[nH]1 [UTP],"in-vitro nucleotide transferase assay, denaturing PAGE of Cy5-labelled RNA",[1],"Purified Tailor-ZnC, Tailor-C and mutants were assayed for oligouridylation activity"
same,"X-ray crystal structure (crystal soaking), 1.74 A",[2],The crystals of the complex of D343A with UTP were obtained by soaking crystals
AGU (ssRNA),binding result,[3],binds
AGUU (ssRNA),binding result,[3],binds
UUUU (ssRNA) [U4],binding result,[3],binds
CAUAUUCACAG (ssRNA) [truncated miR-1003 (3'G)],binding result,[4],binds
same,binding result,[5],binds
same,binding result,[6],binds
